Assays:
GABA = assay: Ion channel panel (IonWorks Barracuda): GABA; format: cell-based; settings: 100% = no change, <100% = inhibition
Summary of the method: (§1)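 Peptides were tested in duplicate at final 20 μM and 200 nM, with concentration set by amino acid analysis, in HEPES-buffered saline. They were applied for at least 5 min to HEK293 or CHO cells transfected with each channel. Currents were expressed as % inhibition, 1-(Ipeptide/Icontrol)×100, or % activation, Ipeptide/Icontrol×100, against a channel-matched reference compound.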

Nav1.7 = target: T1, Nav1.7 (Homo sapiens, UniProt Q15858); assay: cell-based; format: cell-based; settings: 100% = no change; for Activity of Nav1.7 with peptide, expressed as a percentage of the reference compound: peptide at 0.2 μM; for Activity of Nav1.7 with peptide (percentage of the reference compound): peptide at 20 μM
T1 construct: host or cells: HEK293 or CHO

Kir2.1 = target: T2, Kir2.1 (Homo sapiens, UniProt P63252); assay: Ion channel panel (IonWorks Barracuda): Kir2.1; format: cell-based; settings: 100% = no change, <100% = inhibition
T2 construct: host or cells: HEK293 or CHO
Summary of the method: as §1

Kv1.2 = target: T3, Kv1.2 (Homo sapiens, UniProt P16389); assay: cell-based; format: cell-based; settings: 100% = no change, <100% = inhibition
T3 construct: host or cells: HEK293 or CHO
Summary of the method: as §1

Kv1.3 = target: T4, Kv1.3 (Homo sapiens, UniProt P22001); assay: cell-based; format: cell-based; settings: 100% = no change, <100% = inhibition
T4 construct: host or cells: HEK293 or CHO
Summary of the method: as §1

Kv1.1 = target: T5, Kv1.1 (Homo sapiens, UniProt Q09470); assay: cell-based; format: cell-based; settings: 100% = no change, <100% = inhibition
T5 construct: host or cells: HEK293 or CHO
Summary of the method: as §1

Kv2.1 = target: T6, Kv2.1 (Homo sapiens, UniProt Q14721); assay: cell-based; settings: 100% = no change, <100% = inhibition
T6 construct: host or cells: HEK293 or CHO
Summary of the method: as §1

Cav2.1 = target: T7, Cav2.1 (Homo sapiens, UniProt O00555); assay: cell-based; settings: 100% = no change, <100% = inhibition
T7 construct: host or cells: HEK293 or CHO
Summary of the method: as §1

Cav2.2 = target: T8, Cav2.2 (Homo sapiens, UniProt Q00975); assay: cell-based; settings: 100% = no change, <100% = inhibition
T8 construct: host or cells: HEK293 or CHO
Summary of the method: as §1

NR2A = target: T9, NR2A (Homo sapiens, UniProt Q12879); assay: Ion channel panel (IonWorks Barracuda): NR2A; format: cell-based; settings: 100% = no change, <100% = inhibition
T9 construct: host or cells: HEK293 or CHO
Summary of the method: as §1

α3β4 = target: T10, α3β4 (Homo sapiens, UniProt P30926+P32297); assay: Ion channel panel (IonWorks Barracuda): α3β4; format: cell-based; settings: 100% = no change, <100% = inhibition
T10 construct: host or cells: HEK293 or CHO
Summary of the method: as §1

TRPV1 = target: T11, TRPV1 (Homo sapiens, UniProt Q8NER1); assay: Ion channel panel (IonWorks Barracuda): TRPV1; format: cell-based; settings: 100% = no change, <100% = inhibition
T11 construct: host or cells: HEK293 or CHO
Summary of the method: as §1

Nav1.5 = Nav1.5 (Homo sapiens, UniProt Q14524); assay: in vitro; settings: 100% = no change; for Activity of Nav1.5 with peptide, expressed as a percentage of the reference compound: peptide at 0.2 μM; for Activity of Nav1.5 with peptide (percentage of the reference compound): peptide at 20 μM
Summary of the method: as §1

hERG = hERG (Homo sapiens, UniProt Q12809); assay: in vitro; settings: 100% = no change, <100% = inhibition
Summary of the method: as §1

NR2B = target: T12, NR2B (Homo sapiens, UniProt Q13224); assay: Ion channel panel (IonWorks Barracuda): NR2B; format: cell-based; settings: 100% = no change, <100% = inhibition
T12 construct: host or cells: HEK293 or CHO
Summary of the method: as §1

5HT3a = target: T13, 5HT3a (Homo sapiens, UniProt P46098); assay: Ion channel panel (IonWorks Barracuda): 5HT3a; format: cell-based
T13 construct: host or cells: HEK293 or CHO
T13 sequence (P46098 whole entry, looked up): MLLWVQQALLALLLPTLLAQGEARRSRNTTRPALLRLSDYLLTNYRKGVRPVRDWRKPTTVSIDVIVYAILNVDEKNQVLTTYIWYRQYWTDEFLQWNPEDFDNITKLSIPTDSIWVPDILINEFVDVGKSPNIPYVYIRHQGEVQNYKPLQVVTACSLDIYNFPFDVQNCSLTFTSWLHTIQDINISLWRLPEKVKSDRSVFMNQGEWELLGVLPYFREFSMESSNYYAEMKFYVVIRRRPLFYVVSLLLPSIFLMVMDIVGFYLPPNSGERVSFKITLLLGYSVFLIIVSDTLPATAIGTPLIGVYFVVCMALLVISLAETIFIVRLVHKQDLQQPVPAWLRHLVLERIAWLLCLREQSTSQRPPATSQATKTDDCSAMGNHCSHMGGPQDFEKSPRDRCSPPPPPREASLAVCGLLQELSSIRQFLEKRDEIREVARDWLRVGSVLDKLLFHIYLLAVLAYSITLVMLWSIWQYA
Summary of the method: as §1

α4β2 = target: T14, α4β2 (Homo sapiens, UniProt P17787+P43681); assay: Ion channel panel (IonWorks Barracuda): α4β2; format: cell-based; settings: 100% = no change, <100% = inhibition
T14 construct: host or cells: HEK293 or CHO
Summary of the method: as §1

TRPA1 = target: T15, TRPA1 (Homo sapiens, UniProt O75762); assay: Ion channel panel (IonWorks Barracuda): TRPA1; format: cell-based; settings: 100% = no change, <100% = inhibition
T15 construct: host or cells: HEK293 or CHO
Summary of the method: as §1

[1] = first of two Nav1.7 columns (probably TP1)
[2] = second of two Nav1.7 columns (probably TP2)
[3] = first of two Nav1.5 columns (probably TP1)
[4] = second of two Nav1.5 columns (probably TP2)

T1 sequence (Q15858 whole entry): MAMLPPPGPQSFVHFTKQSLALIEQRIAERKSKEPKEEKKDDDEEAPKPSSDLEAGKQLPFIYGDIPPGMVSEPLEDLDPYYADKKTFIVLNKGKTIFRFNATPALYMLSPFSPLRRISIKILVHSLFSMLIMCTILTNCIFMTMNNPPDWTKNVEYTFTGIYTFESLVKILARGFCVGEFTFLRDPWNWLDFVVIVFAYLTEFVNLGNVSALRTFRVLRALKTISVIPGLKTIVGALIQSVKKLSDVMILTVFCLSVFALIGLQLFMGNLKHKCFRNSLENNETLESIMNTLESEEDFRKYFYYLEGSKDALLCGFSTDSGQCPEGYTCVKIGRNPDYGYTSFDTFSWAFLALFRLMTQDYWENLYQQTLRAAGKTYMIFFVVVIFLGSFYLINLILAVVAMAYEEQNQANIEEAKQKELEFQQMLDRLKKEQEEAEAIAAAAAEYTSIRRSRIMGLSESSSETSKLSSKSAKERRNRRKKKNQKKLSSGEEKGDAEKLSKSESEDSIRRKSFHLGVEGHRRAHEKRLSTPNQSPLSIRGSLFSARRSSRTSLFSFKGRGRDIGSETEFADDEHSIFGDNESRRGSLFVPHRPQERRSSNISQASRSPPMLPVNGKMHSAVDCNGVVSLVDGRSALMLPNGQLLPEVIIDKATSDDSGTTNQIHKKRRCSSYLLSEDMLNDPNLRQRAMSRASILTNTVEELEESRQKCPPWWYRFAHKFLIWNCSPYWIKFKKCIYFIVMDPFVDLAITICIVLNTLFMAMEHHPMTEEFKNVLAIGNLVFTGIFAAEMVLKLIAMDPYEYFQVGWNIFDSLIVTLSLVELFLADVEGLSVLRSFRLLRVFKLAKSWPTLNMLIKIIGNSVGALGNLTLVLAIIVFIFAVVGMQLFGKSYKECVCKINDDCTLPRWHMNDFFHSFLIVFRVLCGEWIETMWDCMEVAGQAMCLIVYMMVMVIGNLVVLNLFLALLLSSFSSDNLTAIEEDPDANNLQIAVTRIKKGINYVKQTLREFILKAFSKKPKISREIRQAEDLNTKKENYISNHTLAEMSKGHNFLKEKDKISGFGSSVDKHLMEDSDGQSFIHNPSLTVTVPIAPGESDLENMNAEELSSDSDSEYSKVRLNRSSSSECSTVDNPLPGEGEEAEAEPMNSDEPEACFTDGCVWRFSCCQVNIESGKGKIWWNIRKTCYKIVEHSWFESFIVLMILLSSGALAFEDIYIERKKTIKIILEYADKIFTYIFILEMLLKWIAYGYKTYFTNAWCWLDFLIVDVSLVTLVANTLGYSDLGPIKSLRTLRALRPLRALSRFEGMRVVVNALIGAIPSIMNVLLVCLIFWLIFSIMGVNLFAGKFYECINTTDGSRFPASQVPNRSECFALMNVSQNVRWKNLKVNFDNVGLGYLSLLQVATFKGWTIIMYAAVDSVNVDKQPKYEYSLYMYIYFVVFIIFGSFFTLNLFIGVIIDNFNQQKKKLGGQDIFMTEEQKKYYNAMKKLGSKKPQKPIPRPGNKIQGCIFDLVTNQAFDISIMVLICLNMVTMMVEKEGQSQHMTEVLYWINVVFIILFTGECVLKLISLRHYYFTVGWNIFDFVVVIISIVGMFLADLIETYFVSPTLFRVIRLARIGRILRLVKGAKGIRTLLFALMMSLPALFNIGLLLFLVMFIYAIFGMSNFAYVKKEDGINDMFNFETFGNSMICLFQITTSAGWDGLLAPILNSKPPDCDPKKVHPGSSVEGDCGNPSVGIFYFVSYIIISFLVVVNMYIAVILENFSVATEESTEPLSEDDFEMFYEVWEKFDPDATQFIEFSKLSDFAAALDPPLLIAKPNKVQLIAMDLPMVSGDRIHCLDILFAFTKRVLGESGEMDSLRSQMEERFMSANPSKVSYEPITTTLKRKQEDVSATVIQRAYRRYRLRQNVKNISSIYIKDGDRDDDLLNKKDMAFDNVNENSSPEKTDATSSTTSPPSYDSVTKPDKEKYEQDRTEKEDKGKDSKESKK
Chain of Nav1.5 (Q14524 whole entry): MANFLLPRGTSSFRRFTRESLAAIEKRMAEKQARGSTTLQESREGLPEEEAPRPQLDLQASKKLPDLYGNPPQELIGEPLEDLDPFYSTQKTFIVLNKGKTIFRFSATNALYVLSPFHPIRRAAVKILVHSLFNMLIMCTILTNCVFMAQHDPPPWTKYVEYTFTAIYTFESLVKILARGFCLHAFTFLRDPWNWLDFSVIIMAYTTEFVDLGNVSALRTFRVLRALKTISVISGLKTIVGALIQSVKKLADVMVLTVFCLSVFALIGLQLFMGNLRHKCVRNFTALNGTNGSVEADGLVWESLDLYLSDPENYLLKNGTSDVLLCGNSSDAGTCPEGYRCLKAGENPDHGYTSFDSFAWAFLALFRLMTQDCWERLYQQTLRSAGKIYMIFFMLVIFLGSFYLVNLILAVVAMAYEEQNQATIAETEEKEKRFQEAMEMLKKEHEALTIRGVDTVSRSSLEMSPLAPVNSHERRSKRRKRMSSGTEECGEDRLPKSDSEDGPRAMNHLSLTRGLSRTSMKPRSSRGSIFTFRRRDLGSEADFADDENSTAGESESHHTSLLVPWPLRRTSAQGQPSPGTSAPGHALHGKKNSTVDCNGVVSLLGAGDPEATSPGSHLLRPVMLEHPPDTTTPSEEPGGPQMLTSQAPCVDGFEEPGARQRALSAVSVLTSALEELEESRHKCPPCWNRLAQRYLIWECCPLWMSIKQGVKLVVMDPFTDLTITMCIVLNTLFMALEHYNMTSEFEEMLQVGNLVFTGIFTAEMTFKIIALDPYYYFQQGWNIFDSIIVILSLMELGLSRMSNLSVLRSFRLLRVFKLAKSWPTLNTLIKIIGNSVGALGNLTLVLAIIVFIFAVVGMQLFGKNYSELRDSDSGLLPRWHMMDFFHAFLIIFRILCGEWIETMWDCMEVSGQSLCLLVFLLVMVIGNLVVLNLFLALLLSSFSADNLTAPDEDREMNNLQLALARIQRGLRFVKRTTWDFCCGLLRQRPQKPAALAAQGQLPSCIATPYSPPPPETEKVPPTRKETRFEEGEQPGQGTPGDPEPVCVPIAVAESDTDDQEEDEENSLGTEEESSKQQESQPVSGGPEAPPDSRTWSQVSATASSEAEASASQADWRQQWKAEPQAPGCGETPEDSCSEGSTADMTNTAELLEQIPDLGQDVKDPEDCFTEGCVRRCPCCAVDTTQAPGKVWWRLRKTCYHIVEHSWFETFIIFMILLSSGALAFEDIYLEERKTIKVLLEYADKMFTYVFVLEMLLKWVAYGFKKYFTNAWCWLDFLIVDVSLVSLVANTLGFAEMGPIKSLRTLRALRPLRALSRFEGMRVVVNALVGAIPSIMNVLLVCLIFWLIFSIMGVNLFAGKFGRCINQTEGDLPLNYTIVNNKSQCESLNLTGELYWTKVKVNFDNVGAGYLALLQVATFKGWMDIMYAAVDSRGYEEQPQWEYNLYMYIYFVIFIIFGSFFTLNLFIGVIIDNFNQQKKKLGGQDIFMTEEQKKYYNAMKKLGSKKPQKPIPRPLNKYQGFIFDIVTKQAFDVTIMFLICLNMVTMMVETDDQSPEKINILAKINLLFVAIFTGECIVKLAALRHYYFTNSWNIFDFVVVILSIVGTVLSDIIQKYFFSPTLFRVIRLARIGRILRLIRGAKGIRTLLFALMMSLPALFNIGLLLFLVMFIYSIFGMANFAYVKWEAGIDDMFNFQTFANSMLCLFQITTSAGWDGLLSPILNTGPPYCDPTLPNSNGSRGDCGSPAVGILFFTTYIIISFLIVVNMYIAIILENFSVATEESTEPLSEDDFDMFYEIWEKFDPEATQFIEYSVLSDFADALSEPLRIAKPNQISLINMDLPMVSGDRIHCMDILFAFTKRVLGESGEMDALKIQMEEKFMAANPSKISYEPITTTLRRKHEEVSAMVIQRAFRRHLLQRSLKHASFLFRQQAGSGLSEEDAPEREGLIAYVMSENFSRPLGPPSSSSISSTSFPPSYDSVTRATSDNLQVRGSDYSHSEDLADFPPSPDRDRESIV
T4 sequence (P22001 whole entry): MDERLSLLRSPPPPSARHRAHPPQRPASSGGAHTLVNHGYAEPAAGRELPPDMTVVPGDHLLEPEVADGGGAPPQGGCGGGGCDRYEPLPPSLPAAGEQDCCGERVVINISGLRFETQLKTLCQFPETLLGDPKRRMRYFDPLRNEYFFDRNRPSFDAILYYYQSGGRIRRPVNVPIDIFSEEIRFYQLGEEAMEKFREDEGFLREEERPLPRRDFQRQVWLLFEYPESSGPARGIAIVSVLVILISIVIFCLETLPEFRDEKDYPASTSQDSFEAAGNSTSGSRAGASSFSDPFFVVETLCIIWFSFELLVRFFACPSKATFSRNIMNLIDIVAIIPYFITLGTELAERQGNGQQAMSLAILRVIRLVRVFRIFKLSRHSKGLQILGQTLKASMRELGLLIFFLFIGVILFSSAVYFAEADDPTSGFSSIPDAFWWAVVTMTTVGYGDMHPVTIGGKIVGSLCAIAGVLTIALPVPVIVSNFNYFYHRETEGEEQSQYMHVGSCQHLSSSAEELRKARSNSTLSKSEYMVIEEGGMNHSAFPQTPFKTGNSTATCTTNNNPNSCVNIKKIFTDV
T5 sequence (Q09470 whole entry): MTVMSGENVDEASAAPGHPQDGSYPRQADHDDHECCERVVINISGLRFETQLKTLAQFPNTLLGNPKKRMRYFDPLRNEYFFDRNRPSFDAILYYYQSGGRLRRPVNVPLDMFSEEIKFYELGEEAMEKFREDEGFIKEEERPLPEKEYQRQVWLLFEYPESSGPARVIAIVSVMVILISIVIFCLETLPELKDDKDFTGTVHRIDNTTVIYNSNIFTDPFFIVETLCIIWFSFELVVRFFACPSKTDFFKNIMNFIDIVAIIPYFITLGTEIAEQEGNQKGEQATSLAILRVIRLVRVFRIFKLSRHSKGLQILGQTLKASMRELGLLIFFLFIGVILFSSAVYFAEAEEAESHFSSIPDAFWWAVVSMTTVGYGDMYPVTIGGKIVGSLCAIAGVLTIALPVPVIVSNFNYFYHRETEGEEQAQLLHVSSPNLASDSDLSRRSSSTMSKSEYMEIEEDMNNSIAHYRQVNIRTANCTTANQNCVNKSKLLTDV

13 (GSQKILSNRCNNSSECIPHCIRIFGTRAAKCINRKCYCYP) [compound 13]
Activity of GABA with peptide, expressed as a percentage of the reference compound (GABA; peptide at 0.2 μM): 107%
Activity of GABA with peptide (percentage of the reference compound) (GABA; peptide at 20 μM): 93%
Activity of Nav1.7 with peptide, expressed as a percentage of the reference compound (Nav1.7; [1]): 61%
Activity of Nav1.7 with peptide, expressed as a percentage of the reference compound (Nav1.7; [2]): 66%
Activity of Nav1.7 with peptide (percentage of the reference compound) (Nav1.7; [1]): 71%
Activity of Nav1.7 with peptide (percentage of the reference compound) (Nav1.7; [2]): 62%
Activity of Kir2.1 with peptide, expressed as a percentage of the reference compound (Kir2.1; peptide at 0.2 μM): 97%
Activity of Kir2.1 with peptide (percentage of the reference compound) (Kir2.1; peptide at 20 μM): 98%
Activity of Kv1.2 with peptide, expressed as a percentage of the reference compound (Kv1.2; peptide at 0.2 μM): 88%
Activity of Kv1.2 with peptide (percentage of the reference compound) (Kv1.2; peptide at 20 μM): 40%
Activity of Kv1.3 with peptide, expressed as a percentage of the reference compound (Kv1.3; peptide at 0.2 μM): 68%
Activity of Kv1.3 with peptide (percentage of the reference compound) (Kv1.3; peptide at 20 μM): 64%
Activity of Kv1.1 with peptide, expressed as a percentage of the reference compound (Kv1.1; peptide at 0.2 μM): 107%
Activity of Kv1.1 with peptide (percentage of the reference compound) (Kv1.1; peptide at 20 μM): 79%
Activity of Kv2.1 with peptide, expressed as a percentage of the reference compound (Kv2.1; peptide at 0.2 μM): 104%
Activity of Kv2.1 with peptide (percentage of the reference compound) (Kv2.1; peptide at 20 μM): 116%
Activity of Cav2.1 with peptide, expressed as a percentage of the reference compound (Cav2.1; peptide at 0.2 μM): 109%
Activity of Cav2.1 with peptide (percentage of the reference compound) (Cav2.1; peptide at 20 μM): 100%
Activity of Cav2.2 with peptide, expressed as a percentage of the reference compound (Cav2.2; peptide at 0.2 μM): 121%
Activity of Cav2.2 with peptide (percentage of the reference compound) (Cav2.2; peptide at 20 μM): 100%
Activity of NR2A with peptide, expressed as a percentage of the reference compound (NR2A; peptide at 0.2 μM): 94%
Activity of NR2A with peptide (percentage of the reference compound) (NR2A; peptide at 20 μM): 108%
Activity of a3b4 with peptide, expressed as a percentage of the reference compound (α3β4; peptide at 0.2 μM): 103%
Activity of a3b4 with peptide (percentage of the reference compound) (α3β4; peptide at 20 μM): 83%
Activity of TRPV1 with peptide, expressed as a percentage of the reference compound (TRPV1; peptide at 0.2 μM): 97%
Activity of TRPV1 with peptide (percentage of the reference compound) (TRPV1; peptide at 20 μM): 88%
Activity of Nav1.5 with peptide, expressed as a percentage of the reference compound (Nav1.5; [3]): 98%
Activity of Nav1.5 with peptide, expressed as a percentage of the reference compound (Nav1.5; [4]): 95%
Activity of Nav1.5 with peptide (percentage of the reference compound) (Nav1.5; [3]): 97%
Activity of Nav1.5 with peptide (percentage of the reference compound) (Nav1.5; [4]): 101%
Activity of hERG with peptide, expressed as a percentage of the reference compound (hERG; peptide at 0.2 μM): 89%
Activity of hERG with peptide (percentage of the reference compound) (hERG; peptide at 20 μM): 67%
Activity of NR2B with peptide, expressed as a percentage of the reference compound (NR2B; peptide at 0.2 μM): 122%
Activity of NR2B with peptide (percentage of the reference compound) (NR2B; peptide at 20 μM): 117%
Activity of 5HT3a with peptide (percentage of the reference compound) (5HT3a): 84%
Activity of 5HT3a with peptide, expressed as a percentage of the reference compound (5HT3a): 96%
Activity of a4b2 with peptide, expressed as a percentage of the reference compound (α4β2; peptide at 0.2 μM): 97%
Activity of a4b2 with peptide (percentage of the reference compound) (α4β2; peptide at 20 μM): 80%
Activity of TRPA1 with peptide, expressed as a percentage of the reference compound (TRPA1; peptide at 0.2 μM): 129%
Activity of TRPA1 with peptide (percentage of the reference compound) (TRPA1; peptide at 20 μM): 113%

— patent US20200262877A1, “ION CHANNEL-BINDING PEPTIDES AND METHODS OF USE THEREOF” (priority 2017, published 2020)
